US10202593B2, “Evolved sortases and uses thereof” (President and Fellows of Harvard College, priority 2013, dated 2019)
Where a chain is given by its changes, count along the chain named. Numbers in names are those of the source. Read-outs that look alike come from different tables or passages of the source.

Assays:
Format in all cases: biochemical
[1] = system: LAETG (Abz-LAETGK(Dnp)-CONH2); assay: In vitro sortase kinetics HPLC assay, LAETG substrate
Experimental: (§1) See below for details on sortase expression and purification, and on the synthesis of Abz-LPETGK(Dnp)-CONH2 (SEQ ID NO: 19). […] Reactions were initiated with the addition of enzyme and incubated at 22.5° C. for 3 to 20 minutes before quenching with 0.5 volumes of 1 M HCl. Five to ten nmol of peptide from the quenched reactions were injected onto an analytical reverse-phase Eclipse XDB-C18 HPLC column (4.6×150 mm, 5 μm, Agilent Technologies) and chromatographed using a gradient of 10 to 65% acetonitrile with 0.1% TFA in 0.1% aqueous TFA over 13 minutes. Retention times under these conditions for the Abz-LPETGK(Dnp)-CONH2 (SEQ ID NO: 19) substrate, the released GKDnp peptide, and the Abz-LPETGGG-COOH (SEQ ID NO: 20) product were 12.8, 10.4, and 9.1 min, respectively. To calculate the percent conversion, the ratio of the integrated areas of the Abz-LPETGGG-COOH (SEQ ID NO: 20) and Abz-LPETGK(Dnp)-CONH2 (SEQ ID NO: 19) peptide Abs220 peaks was compared to a standard curve generated by mixing the product and starting peptide in known ratios. To determine […] and Km, reaction rates were fit to the Michaelis-Menten equation using OriginPro 7.0 software. All kinetics values reported represent the average of at least three measurements. Percent conversion was also calculated by using the ratio of the integrated areas of the GK(Dnp)-CONH2 and Abz-LPETGK(Dnp)-CONH2 peptide Abs355 peaks were compared directly (Example 5). To determine kcat and Km, LPETG, reaction rates were fit to the Michaelis-Menten equation using Microsoft Excel using the Solver add-in. To determine Km,GGG and KH, reaction rates were fit to the modified Michaelis-Menten, for which KH is as defined when KH<<Km,GGG.
(§2) Assays to determine eSrtA, eSrtA(2A-9) and eSrtA(4S-9) specificity were performed by preparing 10 μM stocks of Abz-LXEXGK(Dnp) (SEQ ID NO: 75) peptides in 300 mM Tris pH 7.5, 150 mM NaCl, 5 mM CaCl2, 5% v/v DMSO, and 100 mM Gly-Gly-Gly-COOH (GGG). Reactions were performed by adding eSrtA(2A-9) to a final concentration of 450 nM, eSrtA(4S-9) to a final concentration of 115 nM or eSrtA to a final concentration of 47.5 nM and a final volume of 100 μL, then incubating at 22.5° C. for 15 minutes. Reactions were quenched by the addition of 0.2 volumes of 5 M HCl, then were injected onto an analytical reverse-phase Eclipse XDB-C18 HPLC column (4.6×150 mm, 5 μm, Agilent Technologies) and chromatographed using a gradient of 10 to 65% acetonitrile with 0.1% TFA in 0.1% aqueous TFA over 13 minutes. Retention times under these conditions for the Abz-LPETGK(Dnp)-CONH2 (SEQ ID NO: 19) substrate, the released GKDnp peptide, and the Abz-LPETGGG-COOH (SEQ ID NO: 20) product were 12.8, 10.4, and 9.1 min, respectively, while the remaining Abz-LXEXGK(Dnp)-CONH2 (SEQ ID NO: 74) substrates varied in retention time between 9 and 13 minutes. To calculate the percent conversion, the ratio of the integrated areas of the GK(Dnp)-CONH2 and Abz-LPETGK(Dnp)-CONH2 (SEQ ID NO: 19) peptide Abs355 peaks were compared directly. Subsequent determination of kcat/Km and KH were performed as described for in vitro SrtA characterization.
(§3) In each case, rate constants were determined by measuring enzyme velocity at eight different substrate concentrations by HPLC assay, then fit using nonlinear regression to the Michaelis-Menten equation, yielding kcat and Km. KH was calculated by measuring enzyme velocity at 1 mM target substrate and eight different GGG concentrations by HPLC assay, then fitting the resulting curves using nonlinear regression to the modified Michaelis-Menten equation.

[2] = system: LPETG (Abz-LPETGK(Dnp)-CONH2); assay: In vitro sortase kinetics HPLC assay, LPETG substrate
Experimental: as §1, §2, §3

[3] = system: LPESG (Abz-LPESGK(Dnp)-CONH2); assay: In vitro sortase kinetics HPLC assay, LPESG substrate; conditions: reversion of V182
Experimental: as §1, §2, §3

B1: 2A.6B: 5mut + R99K A104H K138V D160K* K162R I182V (protein)
chain: QAKPQIPKDKSKVAGYIEIPDADIKEPVYPGPATREQLNKGVSFHEENESLDDQNISIAGHTFIDRPNYQFTNLKAAKVGSMVYFKVGNETRKYKMTSIRKVRPTAVEVLDEQKGKDKQLTLVTCDDYNEETGVWETRKIFVATEVK
- Khydrolysis ([1]; 1 mM 2A (LAETG) substrate): 12.49 µM
- kcat, 1 mM LxExG (Hz) ([1]; 1 mM 2A (LAETG) substrate, GGG varied): 0.5359 Hz
- Km ([1]; 1 mM 2A (LAETG) substrate, read-out: Km, GGG): 642 µM
- kL/KL/KH ([1]; substrate 2A (LAETG)): 1.81E+08
- kHydrolysis (Hz) ([1]; substrate 2A (LAETG), 1 mM, GGG varied): 0.01048 Hz
- kcat, 10 mM GGG (Hz) ([1]; substrate 2A (LAETG), 10 mM GGG): 0.6977 Hz
- Km ([1]; substrate 2A (LAETG), read-out: Km, LxExG): 310 µM

B2: eSrtA(2A-9) H104A (protein)
chain: B1 chain with K40R, S43C, H45A, E46D, V79P, K93I, R103H, T105N, K114E, T137S
- preference for LPETG over LAETG ([1]; ratio of kcat/KM): 60 fold

B3: eSrtA(2A-9) V182I (protein)
chain: B1 chain with K40R, S43C, E46D, V79P, K93I, R103H, T105N, K114E, V123I, T137S
- preference for LAETG over LPETG ([1]; ratio of kcat/KM): 85 fold
- activity level for LAETG ([1]; reversion of V182): lowers the activity level for LAETG

B4: SrtA: wild-type Staphylococcus aureus sortase A (SEQ ID NO: 1) (protein)
chain: MKKWTNRLMTIAGVVLILVAAYLFAKPHIDNYLHDKDKDEKIEQYDKNVKEQASKDKKQQAKPQIPKDKSKVAGYIEIPDADIKEPVYPGPATPEQLNRGVSFAEENESLDDQNISIAGHTFIDRPNYQFTNLKAAKKGSMVYFKVGNETRKYKMTSIRDVKPTDVEVLDEQKGKDKQLTLITCDDYNEKTGVWEKRKIFVATEVK
modifications: S. aureus
- KH ([2]; 1 mM LPETG): 14.3 ± 0.8 µM
- KN ([2]; 1 mM LPETG, eight GGG concentrations): 14.3 ± 0.8 µM
- Km ([2]; 1 mM LPETG, read-out: Km,GGG): 211 ± 8 µM
- Khydrolysis ([2]; 1 mM wt (LPETG) substrate): 28.38 µM
- kcat, 1 mM LxExG (Hz) ([2]; 1 mM wt (LPETG) substrate, GGG varied): 0.1731 Hz
- Km ([2]; 1 mM wt (LPETG) substrate, read-out: Km, GGG): 291 µM
- KH,LPETG ([2]; LPETG substrate): 14.3 ± 0.8 µM
- Kcat (Hz) ([2]; Sub LPETG, 100 mM GGG): 1.5 ± 0.2 Hz
- Km ([2]; Sub LPETG, 100 mM GGG, read-out: Km): 7600 ± 500 µM
- Rel. Activity ([2]; Sub LPETG, kcat/Km of the enzyme's preferred substrate relative to kcat/Km on this substrate): 1
- Kcat (Hz) ([2]; Table 2, Sub LPETG): 1.5 ± 0.2 Hz
- Km ([2]; Table 2, Sub LPETG, read-out: Km): 7600 ± 500 µM
- kL/KL/KH ([2]; substrate wt (LPETG)): 8.30E+06
- kHydrolysis (Hz) ([2]; substrate wt (LPETG), 1 mM, GGG varied): 0.01657 Hz
- kcat, 10 mM GGG (Hz) ([2]; substrate wt (LPETG), 10 mM GGG): 1.221 Hz
- Km ([2]; substrate wt (LPETG), read-out: Km, LxExG): 5180 µM

B5: eSrtA(4S-9) V182I (protein)
chain: QAKPQIPKDKSKVAGYIEIPDADIKEPVYPGPATREQLDRGVCFVEENESLDDQNISITGHTAIDRPNYQFTNLRAAKKGSMVYLKVGNETRKYKMTSIRNVKPTAVEVLDEQKGKDKQLTLITCDDYNFETGVWETRKIFVATEVK
- selectivity and overall activity [3]: preserved selectivity but decreased overall activity
